Paper doi:10.1101/2024.05.21.594841
Where “and” joins values, the source holds several entries; their conditions need not be identical. Equal entries are not always repeated.

Molecular target: these 5 target proteins
Assay: split reporter

B1: Lhs1p (natural protein)
chain: AVLGVDYGQQNIKAIVVSPQAPLELVLTPEAKRKEISGLSIKRLPGYGKDDPNGIERIYGSAVGSLATRFPQNTLLHLKPLLGKSLEDETTVTLYSKQHPGLEMVSTNRSTIAFLVDNVEYPLEELVAMNVQEIANRANSLLKDRDARTEDFVNKMSFTIPDFFDQHQRKALLDASSITTGIEETYLVSEGMSVAVNFVLKQRQFPPGEQQHYIVYDMGSGSIKASMFSILQPEDTTQPVTIEFEGYGYNPHLGGAKFTMDIGSLIENKFLETHPAIRTDELHANPKALAKINQAAEKAKLILSANSEASINIESLINDIDFRTSITRQEFEEFIADSLLDIVKPINDAVTKQFGGYGTNLPEINGVILAGGSSRIPIVQDQLIKLVSEEKVLRNVNADESAVNGVVMRGIKLSNSFKTKPLNVVDRSVNTYSFKLSNESELYDVFTRGSAYPNKTSILTNTTDSIPNNFTIDLFENGKLFETITVNSGAIKNSYSSDKCSSGVAYNITFDLSSDRLFSIQEVNCICQSENDIGNSKQIKNKGSRLAFTSEDVEIKRLSPSERSRLHEHIKLLDKQDKERFQFQENLNVLESNLYDARNLLMDDEVMQNGPKSQVEELSEMVKVYLDWLEDASFDTDPEDIVSRIREIGILKKKIELYMDSAKEPLNSQQFKGMLEEGHKLLQAIETHKNTVEEFLSQFETEFADTIDNVREEFKKIKQPAYVSKALSTWEETLTSFKNSISEIEKFLAKNLFGEDLREHLFEIKLQFDMYRTKLEEKLRLIKSGDESRLNEIKKLHLRNFRLQKRKEEKLKRKLEQEKSRNNNETESTVINSADDKTTIVNDKTTESNPSSEEDILHDEL
  normalized interacting score: 83% and 93%
